Assay [1] concerns the target T1, mouse CD80 recombinant protein (Mus musculus, UniProt Q00609).
T1 construct: Fc (Fc chimera); His-tag; purchased R&D Systems 740-B1
The assay can be described thus: Phage display screening and enzyme-linked immunosorbent assay screening for CD80 binding. The note with it: peptide derived from ELISA-positive phage colonies. As to the method: In ‘Phage Display Screening”, biopanning is applied via phage display technology. First, the G protein magnetic beads (product name: Dynabeads™ Protein G; manufacturer: Invitrogen) are added to mix with the phage peptide library (product name: PhD-12 Phage Display Peptide Library; manufacturer: New England Biolabs), thus the mixture is incubated for 1 hour at 4° C. ambient conditions. Then, a magnet is used to remove the G protein magnetic beads to exclude phages bound to the G protein magnetic beads in the phage peptide library, thereby obtaining a purified phage peptide library. Continuously, the bait carrier is added to the purified phage peptide library and incubated overnight at 4° C. ambient conditions. The bait carrier is magnetic beads immobilized with mouse CD80 recombinant protein (product name: Recombinant Mouse B7-1/CD80 Fc Chimera His-tag Protein, CF; manufacturer: R&D Systems; catalog number: 740-B1). Therefore, the phages in the purified phage peptide library that bind to the mouse CD80 recombinant protein will be bound to the bait carrier, and then the bait carrier will be separated using the magnet. Then the bait carrier is rinsed with cleaning solution to eliminate phages with weak binding force. The cleaning solution is phosphate buffered saline (PBS) containing 0.1% (v/v) polysorbate-20 (Tween 20). […]
For orientation: ELISA stands for enzyme-linked immunosorbent assay.

Assay [2] has as its target T2, Recombinant Mouse B7-1/CD80 Fc Chimera His-tag Protein, CF (R&D Systems, catalog number 740-B1) (mouse, UniProt Q00609 38-245).
T2 construct: Bought reagent; everywhere else it is mouse; also called mouse CD80 recombinant protein; bait; Fc part of the bought chimera not given; His-tag
T2 sequence (looked up): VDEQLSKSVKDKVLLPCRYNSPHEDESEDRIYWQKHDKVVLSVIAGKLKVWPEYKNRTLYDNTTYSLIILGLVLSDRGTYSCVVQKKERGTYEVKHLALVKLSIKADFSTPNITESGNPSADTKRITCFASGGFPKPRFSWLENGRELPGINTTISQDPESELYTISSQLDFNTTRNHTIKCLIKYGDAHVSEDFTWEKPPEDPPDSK
The assay can be described thus: phage ELISA on plate-coated mouse CD80 recombinant protein, anti-M13 HRP, absorbance at 450 nm. An excerpt:
The PEG8000/NaCl contains 20% (v/v) PEG8000 (product name: Poly (ethylene glycol); manufacturer: Sigma-Aldrich; Cat. No.: P5413-1KG) and 2.5M NaCl (product name: Sodium chloride; manufacturer: Honeywell fluka; Cat. No.: 31434S-1KG). The above steps are repeated for five rounds in total. In the fourth and fifth rounds, phage clones will be randomly selected for culture, and used in the subsequent enzyme-linked immunosorbent assay (ELISA) to screen out desired phages.
In the “Enzyme Combined Immunosorbent Assay Screening”, the mouse CD80 recombinant protein is first fixed in the wells of a microplate (product name: Clear C-Shaped Immuno Nonsterile 96-Well Plates; manufacturer: Thermo Fisher Scientific; Cat. No.: 446612), and then the phage clones randomly selected in the fourth and fifth rounds of the “Phage Display Screening” are mixed with the diluent at a volume ratio of 1:2 to obtain a phage dilution, which is a phosphate buffered saline comprising 3% (v/v) bovine serum albumin (BSA) and 0.1% (v/v) polysorbate-20. […] Constantly, a microplate reader is adopted to measure the absorbance at 450 nm to confirm whether the phages in each grid of the microplate are still bound to the mouse CD80 recombinant protein in the microplate. […]

T1 sequence (Q00609 with tags, fused parts or gaps limits assumed): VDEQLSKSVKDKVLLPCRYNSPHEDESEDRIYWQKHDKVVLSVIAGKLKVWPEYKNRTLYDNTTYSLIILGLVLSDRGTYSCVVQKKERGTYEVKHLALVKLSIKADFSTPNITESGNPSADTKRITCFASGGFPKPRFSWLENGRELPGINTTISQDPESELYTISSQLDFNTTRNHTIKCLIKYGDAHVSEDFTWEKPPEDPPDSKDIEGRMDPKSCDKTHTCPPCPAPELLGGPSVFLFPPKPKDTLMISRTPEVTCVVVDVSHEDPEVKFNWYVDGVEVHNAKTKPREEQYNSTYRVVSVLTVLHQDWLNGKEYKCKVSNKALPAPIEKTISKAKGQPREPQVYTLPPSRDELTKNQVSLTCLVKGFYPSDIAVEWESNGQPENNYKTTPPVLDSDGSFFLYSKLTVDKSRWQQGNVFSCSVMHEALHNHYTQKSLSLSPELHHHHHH

For the molecule “VLMGDPSVWWTY [first peptide, peptide from phage display screening against mouse CD80 recombinant protein]”, the “binding to CD80 protein” value in assay [1] is given as “can indeed bind to the CD80 protein”.

B1: second peptide (YLIYEEEPLNSM) (peptide)
peptide: YLIYEEEPLNSM
notes: In the ELISA screening the peptide stood on an M13 phage clone from the PhD-12 Phage Display Peptide Library
For B1, the binding result in assay [2] is recorded as “binds”.

B2: first peptide (VLMGDPSVWWTY) (peptide)
peptide: VLMGDPSVWWTY
notes: In the ELISA screening the peptide stood on an M13 phage clone from the PhD-12 Phage Display Peptide Library (New England Biolabs); also called novel peptide
Turning to B2, the binding result in assay [2] is recorded as “binds”.

The record behind these values is patent publication US20250302986A1, “NOVEL PEPTIDE, USGAES THEREOF AND PHARMACEUTICAL COMPOSITION HAVING THE SAME” (Taipei Medical University, priority 2024, published 2025).
